Source: the RNAGym collection of RNA variant scans (doi:10.7554/elife.80360)

B1: HDV Ribozyme (parent)
chain: GGCCGGCAUGGUCCCAGCCUCCUCGCUGGCGCCGGCUGGGCAACAUUCCGAGGGGACCGUCCCCUCGGUAAUGGCGAAUGGGACCCA

Variants of: B1
Experiment: self-cleavage, relative activity (ratio to wild type); higher = more cleavage; co-transcriptional

Variant	self-cleavage
G53U C62U	1.06
G53U C62G	0.793
G53U C86U	1.14
G54A C57A	0.818
G54A C57U	1.02
G53U C85U	0.969
G53U U79C	0.535
G53U U79G	0.405
G53U U79A	0.509
G53U G73A	0.831
G53U G73C	0.428
G53U G73U	0.472
G54C C86U	0.923
G54A U65G	0.466
G54A U65A	0.267
G54U C66G	0.882
G54U C66A	0.796
G54C C63G	0.831
G54C C63U	0.774
G55A C86A	0.978
G55A C86G	0.818
G53U A71G	0.843
G54U U60C	1
G54U U60A	0.946

Variant	self-cleavage
G55C G59U	0.87
G55C G59A	1.06
G55A G59U	0.973
G55A G59A	1.13
G55A A87U	1
G55A A87C	1.1
G55A A87G	0.966
G53C A87U	0.903
G55A A78U	0.201
G55A A78G	0.698
G55A A78C	0.0639
G54C U79G	0.475
G54C U79A	0.755
G55A U60A	0.99
G55A U60G	0.798
G55A C61U	0.96
G54A U69G	0.882
G54A G80C	0.0831
G54A G80U	0.214
G54A G74A	0.445
G54A G74C	0.194
G54A G74U	0.562
G54U A71U	0.987
G54U A71C	0.654

Variant	self-cleavage
G54U A71G	0.897
G55A A83U	0.415
G55C C84U	0.817
G55C C84G	0.712
G54C C66G	0.591
G54C C66A	0.814
G54C C66U	0.917
G54C G59A	0.926
G53C U72G	0.697
G53C U72C	1.02
G53C U72A	0.601
G54C U69A	0.945
G54C U69C	0.99
G53U G68C	0.277
G55C A87U	1.02
G55C A87G	0.953
G55C A87C	1.11
G54C U65C	0.92
G54C U65A	0.721
G54C U65G	0.8
G53C A83C	0.525
G54C G74U	0.475
G54A C84A	0.496
G54A C84U	0.563

Variant	self-cleavage
G54A C84G	0.462
G53C C61G	0.955
G53C C61U	1.2
G53C C63G	0.973
G53C C63A	1.06
G53U	1.01
G55A G81C	0.312
G53C C75U	0.131
G53U C64G	0.62
G53U C66U	1.15
G53U C66G	0.821
G54A C66A	0.634
G54A C66U	0.933
G54A C66G	0.821
G53C C86G	0.903
G53C C66A	0.73
G53C C66U	0.918
G53C C66G	1.01
G53U A87U	0.969
G53U A87G	1.03
G53U A87C	0.984
G54U U65G	0.782
G54U U65C	0.969
G54A G59U	1.06

Variant	self-cleavage
G54U G74U	0.421
G54U G74A	0.601
G54C G68U	0.616
G53C G55A	0.898
G53C G55U	0.987
G54C C62U	0.746
G54C C85U	0.892
G54C C85G	0.724
G54C C85A	0.831
G53C U69A	0.77
G54U A56C	0.861
G54U A56G	1.15
G55A C75A	0.254
G55C C66A	0.87
G54A A56C	1.03
G54A A56U	0.878
G54U C61G	0.889
G54U C61A	1.04
G53C G81A	0.369
G53C G81U	0.293
G53U G55C	1.01
G53U U65G	0.831
G54A A70C	0.779
G54C C58G	1.04

Variant	self-cleavage
G53U G54A	0.758
G53U G54U	0.831
G53U G54C	0.845
G54A C58G	1.03
G55A G67C	0.942
G55A G67U	1.12
G54A U79A	0.465
G53C C62A	0.937
G53C C62U	1.03
G54A G55U	0.993
G54A G55A	1.29
G55C A71U	0.872
G55C A71C	0.903
G54A C75U	0.164
G54A C75A	0.211
G54A C75G	0.185
G55A	0.996
G55C	1.02
G55A C57G	1.07
G55A C57A	0.927
G53U C57G	1.1
G53U C57U	1.01
G54C G80C	0.256
G54C G80U	0.206

Variant	self-cleavage
G55C C63U	0.808
G54A C85G	0.892
G55C A77U	0.65
G53C G59U	0.967
G54U G68C	0.496
G54U G68A	0.81
G54U G68U	0.842
G55C C61U	1
G55A C85G	0.962
G55A G74C	0.208
G55A C63G	0.632
G55A C63A	1.21
G54C A70G	1.07
G54C A70U	0.81
G54C A70C	0.755
G55C A78G	0.525
G55C A78U	0.324
G55C A78C	0.111
G54U A83C	0.386
G54U A83G	0.956
G54U G76A	0.981
G54U G76C	0.73
G54U G76U	1.09
